Values quoted from earlier work in patent US9925277B2, “Polynucleotide compositions containing amino acids” (ModernaTX, Inc., priority 2013, dated 2018).

Target: Factor IX (Homo sapiens, UniProt P00740, R384L)
Conditions: mutation at position R338L

Factor IX, sequence (P00740 47-461 R384L): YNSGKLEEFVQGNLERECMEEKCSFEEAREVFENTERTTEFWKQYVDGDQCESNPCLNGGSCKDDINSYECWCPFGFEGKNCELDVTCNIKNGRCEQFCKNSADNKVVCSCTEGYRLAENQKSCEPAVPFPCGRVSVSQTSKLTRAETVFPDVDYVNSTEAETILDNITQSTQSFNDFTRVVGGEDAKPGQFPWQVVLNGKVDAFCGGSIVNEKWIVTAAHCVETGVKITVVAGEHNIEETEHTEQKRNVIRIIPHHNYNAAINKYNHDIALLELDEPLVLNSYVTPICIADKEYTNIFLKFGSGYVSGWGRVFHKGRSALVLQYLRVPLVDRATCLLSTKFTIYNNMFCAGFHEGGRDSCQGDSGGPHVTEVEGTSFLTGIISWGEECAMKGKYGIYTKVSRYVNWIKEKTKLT

increased activity of Factor IX protein: 10 fold
Substance: FIX Padua: Factor IX protein with mutation at position R338L, hyperactive naturally occurring variant
